Experimental data: IntAct's records for PubMed 17517630

B1: Rho GTPase-activating protein 7 (Homo sapiens), Q96QB1-1 (parent)
chain: MCRKKPDTMILTQIEAKEACDWLRATGFPQYAQLYEDFLFPIDISLVKREHDFLDRDAIEALCRRLNTLNKCAVMKLEISPHRKRSDDSDEDEPCAISGKWTFQRDSKRWSRLEEFDVFSPKQDLVPGSPDDSHPKDGPSPGGTLMDLSERQEVSSVRSLSSTGSLPSHAPPSEDAATPRTNSVISVCSSSNLAGNDDSFGSLPSPKELSSFSFSMKGHEKTAKSKTRSLLKRMESLKLKSSHHSKHKAPSKLGLIISGPILQEGMDEEKLKQLNCVEISALNGNRINVPMVRKRSVSNSTQTSSSSSQSETSSAVSTPSPVTRTRSLSACNKRVGMYLEGFDPFNQSTFNNVVEQNFKNRESYPEDTVFYIPEDHKPGTFPKALTNGSFSPSGNNGSVNWRTGSFHGPGHISLRRENSSDSPKELKRRNSSSSMSSRLSIYDNVPGSILYSSSGDLADLENEDIFPELDDILYHVKGMQRIVNQWSEKFSDEGDSDSALDSVSPCPSSPKQIHLDVDNDRTTPSDLDSTGNSLNEPEEPSEIPERRDSGVGASLTRSNRHRLRWHSFQSSHRPSLNSVSLQINCQSVAQMNLLQKYSLLKLTALLEKYTPSNKHGFSWAVPKFMKRIKVPDYKDRSVFGVPLTVNVQRTGQPLPQSIQQAMRYLRNHCLDQVGLFRKSGVKSRIQALRQMNEGAIDCVNYEGQSAYDVADMLKQYFRDLPEPLMTNKLSETFLQIYQYVPKDQRLQAIKAAIMLLPDENREVLQTLLYFLSDVTAAVKENQMTPTNLAVCLAPSLFHLNTLKRENSSPRVMQRKQSLGKPDQKDLNENLAATQGLAHMIAECKKLFQVPEEMSRCRNSYTEQELKPLTLEALGHLGNDDSADYQHFLQDCVDGLFKEVKEKFKGWVSYSTSEQAELSYKKVSEGPPLRLWRSVIEVPAVPEEILKRLLKEQHLWDVDLLDSKVIEILDSQTEIYQYVQNSMAPHPARDYVVLRTWRTNLPKGACALLLTSVDHDRAPVVGVRVNVLLSRYLIEPCGPGKSKLTYMCRVDLRGHMPEWYTKSFGHLCAAEVVKIRDSFSNQNTETKDTKSR

Variants of: B1
Settings: with tens1_chick TNS1, Q04205
Sequence of tens1_chick TNS1, Q04205 (Q04205 whole entry): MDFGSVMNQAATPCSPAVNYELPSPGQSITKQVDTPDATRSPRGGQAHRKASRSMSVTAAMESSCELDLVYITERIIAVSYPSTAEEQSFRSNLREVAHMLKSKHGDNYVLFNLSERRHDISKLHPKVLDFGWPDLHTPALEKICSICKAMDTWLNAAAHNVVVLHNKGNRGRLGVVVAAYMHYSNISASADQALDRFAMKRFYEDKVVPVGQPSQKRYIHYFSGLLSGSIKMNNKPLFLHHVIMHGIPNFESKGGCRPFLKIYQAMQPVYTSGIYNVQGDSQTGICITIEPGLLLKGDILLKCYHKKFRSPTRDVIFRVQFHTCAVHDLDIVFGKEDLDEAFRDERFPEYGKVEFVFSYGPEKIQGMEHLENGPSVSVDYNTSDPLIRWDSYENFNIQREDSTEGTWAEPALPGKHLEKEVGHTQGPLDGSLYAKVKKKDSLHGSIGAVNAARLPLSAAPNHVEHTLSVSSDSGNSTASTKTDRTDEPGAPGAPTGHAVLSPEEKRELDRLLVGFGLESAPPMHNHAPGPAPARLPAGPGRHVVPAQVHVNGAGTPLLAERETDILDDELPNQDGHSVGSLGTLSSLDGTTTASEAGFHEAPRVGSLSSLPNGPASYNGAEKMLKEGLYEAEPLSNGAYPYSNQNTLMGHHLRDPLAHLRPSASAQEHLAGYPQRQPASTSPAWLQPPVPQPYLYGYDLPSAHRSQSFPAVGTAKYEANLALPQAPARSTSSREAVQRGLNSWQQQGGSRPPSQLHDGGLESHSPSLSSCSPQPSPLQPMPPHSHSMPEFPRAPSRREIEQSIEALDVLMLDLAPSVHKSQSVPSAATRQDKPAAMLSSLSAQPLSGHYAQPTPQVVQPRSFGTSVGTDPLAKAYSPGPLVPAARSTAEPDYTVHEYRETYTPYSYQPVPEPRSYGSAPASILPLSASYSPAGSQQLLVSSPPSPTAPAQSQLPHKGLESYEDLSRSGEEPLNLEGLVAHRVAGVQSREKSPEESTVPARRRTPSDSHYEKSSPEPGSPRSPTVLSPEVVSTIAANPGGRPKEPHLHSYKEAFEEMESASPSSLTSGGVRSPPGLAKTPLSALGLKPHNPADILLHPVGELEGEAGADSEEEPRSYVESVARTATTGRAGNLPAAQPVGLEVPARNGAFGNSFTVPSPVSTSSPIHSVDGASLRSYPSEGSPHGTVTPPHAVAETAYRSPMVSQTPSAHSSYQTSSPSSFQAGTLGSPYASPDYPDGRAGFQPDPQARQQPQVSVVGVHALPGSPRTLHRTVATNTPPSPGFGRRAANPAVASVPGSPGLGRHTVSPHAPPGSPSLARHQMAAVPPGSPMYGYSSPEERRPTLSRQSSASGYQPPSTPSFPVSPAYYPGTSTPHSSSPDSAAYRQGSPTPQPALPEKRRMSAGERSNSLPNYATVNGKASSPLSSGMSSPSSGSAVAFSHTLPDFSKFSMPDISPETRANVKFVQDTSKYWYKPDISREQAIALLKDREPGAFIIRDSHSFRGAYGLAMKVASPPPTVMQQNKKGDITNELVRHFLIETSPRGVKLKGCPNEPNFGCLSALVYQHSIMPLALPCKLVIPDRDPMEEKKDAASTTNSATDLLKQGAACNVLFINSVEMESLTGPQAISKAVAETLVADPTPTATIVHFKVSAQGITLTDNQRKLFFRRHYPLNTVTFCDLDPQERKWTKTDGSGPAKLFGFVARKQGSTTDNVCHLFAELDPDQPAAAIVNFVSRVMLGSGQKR

| effect of a mutation on the interaction | Variant |
| --- | --- |
| disrupting interaction strength | Y442F |
